The target of the assay is Insulin-like growth factor 2 mRNA binding protein 2, full-length, Q9Y6M1. Put plainly: mass photometry. The settings on record: remark: other sources report otherwise.

B1: Insulin-like growth factor 2 mRNA binding protein 2, full-length, Q9Y6M1 1-599 (natural protein)
chain: MMNKLYIGNLSPAVTADDLRQLFGDRKLPLAGQVLLKSGYAFVDYPDQNWAIRAIETLSGKVELHGKIMEVDYSVSKKLRSRKIQIRNIPPHLQWEVLDGLLAQYGTVENVEQVNTDTETAVVNVTYATREEAKIAMEKLSGHQFENYSFKISYIPDEEVSSPSPPQRAQRGDHSSREQGHAPGGTSQARQIDFPLRILVPTQFVGAIIGKEGLTIKNITKQTQSRVDIHRKENSGAAEKPVTIHATPEGTSEACRMILEIMQKEADETKLAEEIPLKILAHNGLVGRLIGKEGRNLKKIEHETGTKITISSLQDLSIYNPERTITVKGTVEACASAEIEIMKKLREAFENDMLAVNQQANLIPGLNLSALGIFSTGLSVLSPPAGPRGAPPAAPYHPFTTHSGYFSSLYPHHQFGPFPHHHSYPEQEIVNLFIPTQAVGAIIGKKGAHIKQLARFAGASIKIAPAEGPDVSERMVIITGPPEAQFKAQGRIFGKLKEENFFNPKEEVKLEAHIRVPSSTAGRVIGKGGKTVNELQNLTSAEVIVPRDQTPDENEEVIVRIIGHFFASQTAQRKIREIVQQVKQQEQKYPQGVASQRSK
Consider B1, for which the percent of the protein in the ˜160kDa species was determined as 42%.

Values taken from publication PMC10889000.
